As a reminder, the Kd is the concentration at which binding is half-saturated. By koff is commonly meant the rate constant with which the complex falls apart. As a reminder, the kon is the rate constant with which the complex forms.

Four substances from US20240368242A1 can be followed below.

Assay [1] concerns the target murine OX40 expressed on CHOK1 cells (CHOK1/mOX40) (murine) (UniProt P47741). Briefly: flow cytometry on CHOK1-mOX40 cells. (In general: A flow cytometer gives signals particle by particle.)
The target of assay [2] is recombinant human CD47 protein (human) (UniProt Q08722). The assay can be described thus: SPR, binding to human CD47.
Assay [3] deals with FcRn-His (Example 11). The assay can be described thus: SPR (BioRad ProteOn XPR 360), His-tagged target chip-bound.
The target of assay [4] is Human FcRn (human) (UniProt P55899). The assay can be described thus: SPR, binding to human FcRn.
The target in assay [5] is Human FcγR1A. Briefly: SPR, binding to human FcγR1A. A general note: Surface plasmon resonance follows binding to a sensor surface in real time, without labels.
Sequence of Human FcγR1A (chain, as listed by the source limits assumed): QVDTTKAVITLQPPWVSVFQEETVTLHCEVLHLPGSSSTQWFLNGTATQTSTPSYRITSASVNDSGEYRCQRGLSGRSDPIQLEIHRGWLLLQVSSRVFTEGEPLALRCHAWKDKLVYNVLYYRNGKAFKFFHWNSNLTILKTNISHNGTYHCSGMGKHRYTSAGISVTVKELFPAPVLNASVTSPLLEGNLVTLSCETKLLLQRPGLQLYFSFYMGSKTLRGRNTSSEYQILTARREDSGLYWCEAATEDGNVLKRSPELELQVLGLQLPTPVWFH

Sequence of recombinant human CD47 protein (human) (Q08722 19-139 limits assumed): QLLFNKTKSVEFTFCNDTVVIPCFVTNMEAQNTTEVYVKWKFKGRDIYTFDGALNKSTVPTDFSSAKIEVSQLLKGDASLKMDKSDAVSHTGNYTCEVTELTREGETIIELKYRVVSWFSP
Sequence of FcRn-His (Example 11) (Q61559 22-297, chain 1 of 2): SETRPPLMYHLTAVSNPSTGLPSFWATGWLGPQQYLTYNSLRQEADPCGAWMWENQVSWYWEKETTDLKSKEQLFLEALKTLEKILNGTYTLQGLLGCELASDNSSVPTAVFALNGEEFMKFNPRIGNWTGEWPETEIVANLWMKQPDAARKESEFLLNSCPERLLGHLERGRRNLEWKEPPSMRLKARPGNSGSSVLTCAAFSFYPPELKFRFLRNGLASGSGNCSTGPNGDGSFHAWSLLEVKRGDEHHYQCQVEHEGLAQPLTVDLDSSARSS
Sequence of FcRn-His (Example 11) (P01887 21-119, chain 2 of 2, further chain): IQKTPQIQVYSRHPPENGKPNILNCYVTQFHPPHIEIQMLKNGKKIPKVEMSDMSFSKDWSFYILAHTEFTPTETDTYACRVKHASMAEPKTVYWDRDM
Sequence of Human FcRn (human) (P55899 24-297 limits assumed, chain 1 of 2): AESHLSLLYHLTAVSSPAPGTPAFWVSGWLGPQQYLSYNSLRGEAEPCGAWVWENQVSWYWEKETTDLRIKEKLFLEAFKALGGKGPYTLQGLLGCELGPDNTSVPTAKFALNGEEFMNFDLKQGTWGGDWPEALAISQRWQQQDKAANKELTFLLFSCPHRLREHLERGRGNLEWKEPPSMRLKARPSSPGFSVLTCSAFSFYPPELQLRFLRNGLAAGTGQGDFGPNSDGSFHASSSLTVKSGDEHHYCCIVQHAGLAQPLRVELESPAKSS
Sequence of Human FcRn (human) (chain, as listed by the source limits assumed, chain 2 of 2): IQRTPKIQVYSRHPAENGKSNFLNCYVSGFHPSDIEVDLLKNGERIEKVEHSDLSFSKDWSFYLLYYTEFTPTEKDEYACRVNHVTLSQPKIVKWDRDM
Sequence of murine OX40 expressed on CHOK1 cells (CHOK1/mOX40) (murine) (P47741 20-272): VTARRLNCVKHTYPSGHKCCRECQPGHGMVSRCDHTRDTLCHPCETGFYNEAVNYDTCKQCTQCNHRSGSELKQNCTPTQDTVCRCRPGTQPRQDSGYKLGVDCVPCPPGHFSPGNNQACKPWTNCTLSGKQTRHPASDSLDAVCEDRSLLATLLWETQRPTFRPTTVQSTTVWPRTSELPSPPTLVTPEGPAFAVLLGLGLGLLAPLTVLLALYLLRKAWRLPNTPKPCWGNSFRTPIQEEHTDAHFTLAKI

Substance “murine TIM3-Fc-OX40L chimeric protein (from UniProt Q8VIM0 20-193; P43488 51-198) (Fc fusion)” displayed an affinity (cell binding assay) in assay [1] of 15.2 nM.
Take CD172a-Fc Cntl (Fc fusion): in assay [2], the Kd is 3.16 nM, the koff came out at 0.00239 s⁻¹ and the kon stood at 756000 M⁻¹ s⁻¹.
For “IgG2A (control protein, Example 11) (antibody)”, in assay [3], the Kd amounted to 8.08 nM, the koff was found to be 0.0242 s⁻¹ and the kon was found to be 3e+06 M⁻¹ s⁻¹.
Consider IgG1 (antibody), for which, in assay [4], the koff was determined as 0.0046 s⁻¹ and the kon was determined as 945000 M⁻¹ s⁻¹. In assay [5], the koff turned out to be 0.00044 s⁻¹ and the kon turned out to be 24900 M⁻¹ s⁻¹.
